Entries after “also recorded” stand apart in the source; their conditions may differ.
B1: procollagen C-proteinase pCP-2 (986 amino acids), recombinant, in medium of transfected HT-1080 cells (protein)
chain: AATSRPEPVWPDGVIPFVIGGNFTGSQRAVFPQAMRHWEKHTCVTFLERTDEDSYILFTYAPCGCCSYVGRRGGGPQAISMGKNCDKFGIVVHELGHVVGLWHEHTGPDRDRQVSIVRENIQPGQEYNFLKMEPQEVESLGETYDFDSIMHYARNTFSRGIFLDTIVPKYEVNGVKPPIGQRTRLRKGDIAQAPKLYKCPACGETLQDSTGNFSSPEYPNGYSAHMHCVWRICVTPGEKIILNFTSLDLYRSGLCWYQYVEVRDGFWRKAPLRGRFCGSKLPEPIVSTDSRLWVQFRSSSNWLGKGFFPVYEAMWGGDVKKDYGQIQSPNYPDDYRPSKVWMWRIQVSEGFDVGLTFQSFEIERHDSCGYDYLEVRDGHSESSTLIGRYCRYEKPDEIKSTSSPLWLKFVSDGSINKPGFAVNFFKEVDECSRPNRGGCEQRCLNTLGSYKWSCDPGYELPPEKRRCEAPCGGFLTKLNGSISRGGWPKEYPPNKNCIWQLVAPTQYRISLQFDFFETEGNDVCKYDFVEVRSGLTADSKLHGKFCGSEKPEVITSQYNNMRVEFKSDNTVSKKGFKAHFFSDKDECSKDNGGCQQDCVNTFGSYECQCRSGFVLHDNKHDCKEPGCDHKVTSTSGTITSPNWPDKYPSKKECTWAISSTPGHRVKLTFMEMDIESQPECAYDHLEVFDGRDAKAPVLGRFCGSKKPEPVLGTGSRMFLRFYSDNSVQRKGFQASHATECGGQVGADVKTKDLYSHAQFGDNNYPGGVDCEWVIVPEEGYGVEVLFQTFEVEDQTDCGYHYMELFDGYDSTAPRLGRYCGSGPPEEVYSAGDSVLVKFHSDDTITKKGFHLRYTSTKFQDTLHSRK
B2: recombinant pCP-2 with a 6-histidine tag, expressed in E. coli, refolded and activated by limited digestion with chymotrypsin (protein)
chain: B1 chain
B3: recombinant pCP-2 with a 6-histidine tag, expressed in E. coli, refolded, without chymotrypsin activation (protein)
chain: LDFPDYTYDLAEEDDSEPLNYKDPCKAAAFLGDIALDEEDLRAFQVQQAVDVRRHTARKSSIKAAVPGNTSTPTCQSTNGQPQRGACGRWRGRSRSRRAATSRPEPVWPDGVIPFVIGGNFTGSQRAVFPQAMRHWEKHTCVTFLERTDEDSYILFTYAPCGCCSYVGRRGGGPQAISMGKNCDKFGIVVHELGHVVGLWHEHTGPDRDRQVSIVRENIQPGQEYNFLKMEPQEVESLGETYDFDSIMHYARNTFSRGIFLDTIVPKYEVNGVKPPIGQRTRLRKGDIAQAPKLYKCPACGETLQDSTGNFSSPEYPNGYSAHMHCVWRICVTPGEKIILNFTSLDLYRSGLCWYQYVEVRDGFWRKAPLRGRFCGSKLPEPIVSTDSRLWVQFRSSSNWLGKGFFPVYEAMWGGDVKKDYGQIQSPNYPDDYRPSKVWMWRIQVSEGFDVGLTFQSFEIERHDSCGYDYLEVRDGHSESSTLIGRYCRYEKPDEIKSTSSPLWLKFVSDGSINKPGFAVNFFKEVDECSRPNRGGCEQRCLNTLGSYKWSCDPGYELPPEKRRCEAPCGGFLTKLNGSISRGGWPKEYPPNKNCIWQLVAPTQYRISLQFDFFETEGNDVCKYDFVEVRSGLTADSKLHGKFCGSEKPEVITSQYNNMRVEFKSDNTVSKKGFKAHFFSDKDECSKDNGGCQQDCVNTFGSYECQCRSGFVLHDNKHDCKEPGCDHKVTSTSGTITSPNWPDKYPSKKECTWAISSTPGHRVKLTFMEMDIESQPECAYDHLEVFDGRDAKAPVLGRFCGSKKPEPVLGTGSRMFLRFYSDNSVQRKGFQASHATECGGQVGADVKTKDLYSHAQFGDNNYPGGVDCEWVIVPEEGYGVEVLFQTFEVEDQTDCGYHYMELFDGYDSTAPRLGRYCGSGPPEEVYSAGDSVLVKFHSDDTITKKGFHLRYTSTKFQDTLHSRK
B4: procollagen C-proteinase pCP-1 (730 amino acids), recombinant, in medium of transfected HT-1080 cells (protein)
chain: AATSRPERVWPDGVIPFVIGGNFTGSQRAVFRQAMRHWEKHTCVTFLERTDEHSYILFTYRPCGCCSYVGPRGGGPQAISIGKNCDKFGIVVHELGHVVGFWHEHTRPDRDRHVSIVRENIQPGQEYNFLKMEPQEVESLGETYDFDSIMHYARNTFSRGIFLDTIVPKYEVNGVKPPIGQRTRLSKGDIAQARKLYKCPACGETLQDSTGNFSSPEYPNGYSAHMHCVWRISVTPGEKIILNFTSLDLYRSPLCWYDYVEVRDGFWRKAPLRGRFCGSKLPEPIVSTDSRLWVEFRSSSNWVGNGFFAVYEGICGGDVKKDYGHIQSPNYPDDYRPSKVCIWRIQVSEGFHVGLTFQSFEIERHDSCAYDYLEVRDGHSESSTLIGRYCGYEKPDDIKSTSSRLWLKFVSDGSINKAGFAVNFFKEVDECSRPNRGGCEQRCLNTLGSYKCSCHPGYELAPDKRRCEAACGGFLTKLNGSITSPGWPKEYPPNKNCIWQLVAPTQYRISLQFDFFETEGNDVCKYDFVEVRSGLTAHSKLHGKFCGSEKPEVITSQYNNMRVEFKSDNTVSKKGFKAHFFSENRPALQPPRGPPHQLKFRVQKRNRTPQ

Biological target: 14C-labeled type I procollagen purified from chick embryo fibroblasts, P02457
Sequence (P02457 23-1453, chain 1 of 2): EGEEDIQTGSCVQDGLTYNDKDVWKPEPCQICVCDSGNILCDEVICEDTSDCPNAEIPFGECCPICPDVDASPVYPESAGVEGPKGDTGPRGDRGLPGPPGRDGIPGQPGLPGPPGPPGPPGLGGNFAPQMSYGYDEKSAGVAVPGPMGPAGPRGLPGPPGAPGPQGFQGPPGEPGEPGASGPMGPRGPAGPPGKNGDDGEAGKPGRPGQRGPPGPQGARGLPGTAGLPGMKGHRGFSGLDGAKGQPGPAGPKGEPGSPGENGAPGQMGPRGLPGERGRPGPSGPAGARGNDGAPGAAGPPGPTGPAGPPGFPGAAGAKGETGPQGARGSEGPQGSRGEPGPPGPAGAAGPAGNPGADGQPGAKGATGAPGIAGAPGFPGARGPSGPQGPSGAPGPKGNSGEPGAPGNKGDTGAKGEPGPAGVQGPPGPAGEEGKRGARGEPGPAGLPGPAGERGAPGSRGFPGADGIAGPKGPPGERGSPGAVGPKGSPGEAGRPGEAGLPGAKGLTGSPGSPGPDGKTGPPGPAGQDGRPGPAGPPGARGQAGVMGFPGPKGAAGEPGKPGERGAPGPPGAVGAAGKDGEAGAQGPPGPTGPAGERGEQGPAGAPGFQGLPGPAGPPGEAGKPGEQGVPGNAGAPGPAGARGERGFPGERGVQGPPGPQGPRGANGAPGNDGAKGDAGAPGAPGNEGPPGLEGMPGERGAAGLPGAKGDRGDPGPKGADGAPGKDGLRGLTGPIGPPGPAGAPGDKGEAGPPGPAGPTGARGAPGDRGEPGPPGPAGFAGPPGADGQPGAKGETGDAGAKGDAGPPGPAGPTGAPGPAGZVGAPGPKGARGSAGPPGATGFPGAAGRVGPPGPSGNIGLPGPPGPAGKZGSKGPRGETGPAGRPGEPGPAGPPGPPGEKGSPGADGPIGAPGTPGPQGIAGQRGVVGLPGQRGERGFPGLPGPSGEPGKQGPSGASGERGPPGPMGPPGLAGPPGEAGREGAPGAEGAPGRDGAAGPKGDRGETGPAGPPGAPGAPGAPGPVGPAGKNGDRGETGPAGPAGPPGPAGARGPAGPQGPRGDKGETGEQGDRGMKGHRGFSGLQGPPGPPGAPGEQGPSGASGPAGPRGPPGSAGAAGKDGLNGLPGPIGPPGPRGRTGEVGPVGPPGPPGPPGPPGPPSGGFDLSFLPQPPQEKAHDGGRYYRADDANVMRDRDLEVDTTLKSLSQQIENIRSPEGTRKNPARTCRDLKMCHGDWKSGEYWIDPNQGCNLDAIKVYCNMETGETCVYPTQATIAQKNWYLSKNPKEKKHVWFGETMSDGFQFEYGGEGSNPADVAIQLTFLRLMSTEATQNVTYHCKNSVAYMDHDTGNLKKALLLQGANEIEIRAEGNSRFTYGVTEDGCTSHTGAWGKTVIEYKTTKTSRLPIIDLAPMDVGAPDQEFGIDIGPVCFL
Sequence (chain, as listed by the source, chain 2 of 2): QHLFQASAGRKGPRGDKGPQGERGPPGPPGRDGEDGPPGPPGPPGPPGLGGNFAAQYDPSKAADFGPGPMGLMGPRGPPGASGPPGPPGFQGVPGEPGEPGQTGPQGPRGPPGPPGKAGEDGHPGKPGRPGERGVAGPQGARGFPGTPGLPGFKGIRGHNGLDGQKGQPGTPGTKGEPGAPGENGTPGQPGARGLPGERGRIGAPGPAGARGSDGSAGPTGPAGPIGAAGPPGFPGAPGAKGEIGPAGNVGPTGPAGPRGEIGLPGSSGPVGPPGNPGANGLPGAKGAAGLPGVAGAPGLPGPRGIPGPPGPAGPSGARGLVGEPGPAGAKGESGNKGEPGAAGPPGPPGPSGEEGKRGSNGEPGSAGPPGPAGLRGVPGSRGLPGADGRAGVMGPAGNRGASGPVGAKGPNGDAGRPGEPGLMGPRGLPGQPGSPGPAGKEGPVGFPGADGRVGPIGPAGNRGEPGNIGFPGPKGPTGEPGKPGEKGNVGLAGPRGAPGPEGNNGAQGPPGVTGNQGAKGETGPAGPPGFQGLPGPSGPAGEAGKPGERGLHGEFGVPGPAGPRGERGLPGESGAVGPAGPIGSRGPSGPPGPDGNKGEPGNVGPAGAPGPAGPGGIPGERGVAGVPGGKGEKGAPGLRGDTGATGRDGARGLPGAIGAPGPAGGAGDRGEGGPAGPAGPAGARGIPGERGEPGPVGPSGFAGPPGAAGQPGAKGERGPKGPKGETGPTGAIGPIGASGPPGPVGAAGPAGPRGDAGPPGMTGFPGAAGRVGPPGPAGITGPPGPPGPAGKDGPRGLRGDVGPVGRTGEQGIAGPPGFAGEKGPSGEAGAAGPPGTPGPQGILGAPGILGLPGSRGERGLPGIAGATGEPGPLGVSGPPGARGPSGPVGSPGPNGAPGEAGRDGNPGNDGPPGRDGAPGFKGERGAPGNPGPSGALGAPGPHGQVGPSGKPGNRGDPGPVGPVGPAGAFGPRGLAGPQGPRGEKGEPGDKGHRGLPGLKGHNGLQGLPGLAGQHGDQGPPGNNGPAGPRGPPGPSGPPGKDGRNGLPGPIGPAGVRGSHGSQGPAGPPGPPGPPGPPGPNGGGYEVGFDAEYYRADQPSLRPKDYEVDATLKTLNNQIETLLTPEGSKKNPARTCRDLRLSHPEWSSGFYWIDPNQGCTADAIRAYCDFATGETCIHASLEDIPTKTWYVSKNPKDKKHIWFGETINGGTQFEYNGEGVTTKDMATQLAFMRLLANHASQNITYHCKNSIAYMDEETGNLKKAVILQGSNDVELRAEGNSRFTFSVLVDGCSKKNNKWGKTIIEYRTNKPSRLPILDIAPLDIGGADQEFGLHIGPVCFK

Protein | C-proteinase activity: cleavage of 14C-labeled type I procollagen, SDS-polyacrylamide gel | C-proteinase activity in a standard reaction system with 14C-labeled procollagen | specific activity relative to C-proteinase isolated from chick embryo tendons
B1 | Medium from neomycin-resistant clones expressing either pCP-1 or pCP-2 contained enzymatic activity that specifically cleaved type I procollagen into the products predicted by the introduction of C-proteinase; also recorded: Complete cleavage of type I procollagen to pNα1 (I) chains, pNα2 (I) chains and the C-propeptide were obtained with medium from a clone transfected with pCP-2 and partially fractionated and concentrated by membrane filtration | – | –
B2 | – | Specific C-proteinase activity was observed (Lanes 1 to 4 in FIG. 5 ) after limited digestion with chymotrypsin | about 1/30-th of the specific activity of C-proteinase isolated from chick embryo tendons
B3 | – | No C-proteinase activity was observed when the recombinant protein was incubated in a standard reaction system without prior activation of the protein by digestion with chymotrypsin | –
B4 | Medium from neomycin-resistant clones expressing either pCP-1 or pCP-2 contained enzymatic activity that specifically cleaved type I procollagen into the products predicted by the introduction of C-proteinase | – | –
